Substitutions are numbered along the chain they refer to.

The target in assay [1] is T1, human 4-1BB (recombinant antigen, construct not stated) (human, UniProt Q07011 24-186).
T1 construct: It may be the 4-1BB/Fc chimera; also called CD137/HUMAN 4-1BB; unlabeled human 4-1BB
In words: SPR (Biacore 3000), Fab analyte on amine-coupled human 4-1BB.

Assay [2] addresses T2, Recombinant human 4-1BB/Fc Chimera (R&D Systems #838-4B) (human, UniProt Q07011 24-186).
T2 construct: Bought protein; also called Human 4-1BB IgG1Fc chimera; not shown: Factor Xa-cleavable junction, human IgG1 Fc and 6xHistidine tag of the bought chimera
Kind of assay: ELISA on directly coated human 4-1BB/Fc.

Assay [3] deals with T3, human 4-1BB on cells (human, UniProt Q07011 18-255).
T3 construct: Expressed on stably transfected HEK293/HEK293T cells, transduced 300-19 cells or PHA stimulated human PBMC; also called h41BB; hu4-1BB
In words: FACS on HEK293 cells expressing human 4-1BB.

Assay [4] concerns the target T1, human 4-1BB (recombinant antigen, …). In words: solution equilibrium titration (SET), MSD electrochemiluminescence.
For a further assay, the target named is T4, CD40 on 300.19 cells (UniProt P25942 21-277, limits assumed).
T4 construct: whole, on cells; also called TNFRSF5; 300.19 CD40
Kind of assay: FACS on 300.19 cells expressing CD40.

Assay [5] addresses T2, Recombinant human 4-1BB/Fc Chimera (R&D …). Kind of assay: ELISA on directly coated human 4-1BB/Fc, IgG1.
The target in assay [6] is T3, human 4-1BB on cells. In words: FACS on HEK293T cells expressing human 4-1BB, IgG1.
Assay [7] deals with T2, Recombinant human 4-1BB/Fc Chimera (R&D …). Kind of assay: ligand competition ELISA, 4-1BB_IgG1Fc to plate-bound 4-1BBL (competitor 4-1BBL).
Assay [8] has as its target T3, human 4-1BB on cells. Kind of assay: FACS dose response, Alexa Fluor 647 labelled antibody on 300-19 cells expressing human 4-1BB.
In assay [9] the target is T3, human 4-1BB on cells. Kind of assay: FACS on transfected cells.
In assay [10] the target is T5, human 4-1BB extracellular portion, amino acids 24-186 (Fc cleaved off with Factor Xa) (human, UniProt Q07011 24-186).
T5 construct: Made from the R&D Systems 4-1BB/Fc chimera by Factor Xa cleavage; also called recombinant human 4-1BB; the 4-1BB
Kind of assay: SPR (Biacore 3000), antibody amine-coupled, 4-1BB 24-186 as analyte, 25 C.

The next assay addresses T6, OX-40 on 300.19 cells (UniProt P43489 29-277, limits assumed).
T6 construct: whole, on cells; also called CD134; TNFRSF4
T6 sequence (looked up): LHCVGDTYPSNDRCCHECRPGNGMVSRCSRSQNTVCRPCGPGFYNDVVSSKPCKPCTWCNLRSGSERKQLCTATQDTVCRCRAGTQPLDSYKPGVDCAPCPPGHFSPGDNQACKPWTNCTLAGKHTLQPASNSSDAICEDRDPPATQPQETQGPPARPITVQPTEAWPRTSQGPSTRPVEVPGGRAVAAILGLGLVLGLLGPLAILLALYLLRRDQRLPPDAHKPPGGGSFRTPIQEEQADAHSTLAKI
In words: FACS on 300.19 cells expressing OX-40.

In assay [11] the target is T7, Hu41BB N&E.5 (human, UniProt Q07011 18-255).
T7 construct: Human-to-dog mutant of the human 4-1BB extracellular domain, expressed on transduced 300-19 cells; also called 4-1BB Mutant N&E.5
T7 chain: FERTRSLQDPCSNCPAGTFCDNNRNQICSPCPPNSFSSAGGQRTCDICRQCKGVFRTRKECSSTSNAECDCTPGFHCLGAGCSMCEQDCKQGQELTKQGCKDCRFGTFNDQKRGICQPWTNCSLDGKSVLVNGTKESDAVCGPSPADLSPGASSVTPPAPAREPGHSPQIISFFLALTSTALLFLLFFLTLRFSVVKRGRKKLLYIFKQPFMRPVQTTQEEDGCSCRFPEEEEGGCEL
In words: FACS dose response on 300-19 cell pools.

Assay [12] concerns the target T7, Hu41BB N&E.5. Kind of assay: FACS dose response, Alexa Fluor 647 labelled antibody on 300-19 cells expressing mutant N&E.5.
Another assay has as its target T8, Hu41BB N&E (human, UniProt Q07011 18-255).
T8 construct: Human-to-dog mutant of the human 4-1BB extracellular domain, expressed on transduced 300-19 cells
T8 chain: T7 chain with N13K, A39T, G40S, R43K, T44A, Q98K, R104C, Q117R, S137R, A139V
In words: FACS, 100 nM antibody, transduced 300-19 cell pools.

A further assay has as its target T9, Hu41BB N&E.3 (human, UniProt Q07011 18-255).
T9 construct: Human-to-dog mutant of the human 4-1BB extracellular domain, expressed on transduced 300-19 cells
T9 chain: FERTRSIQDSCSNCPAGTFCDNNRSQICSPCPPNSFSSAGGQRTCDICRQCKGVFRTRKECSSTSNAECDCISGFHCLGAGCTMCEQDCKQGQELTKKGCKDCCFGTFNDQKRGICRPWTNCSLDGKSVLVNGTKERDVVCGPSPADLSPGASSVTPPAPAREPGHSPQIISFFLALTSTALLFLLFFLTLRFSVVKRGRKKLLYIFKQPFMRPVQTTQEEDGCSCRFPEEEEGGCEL
The assay is described as above.

A further assay has as its target T10, Hu41BB N&E.6 (human, UniProt Q07011 18-255).
T10 construct: Human-to-dog mutant of the human 4-1BB extracellular domain, expressed on transduced 300-19 cells
T10 chain: T7 chain with Q98K, R104C, Q117R, S137R, A139V, S144A, P145S, D147G, L148F, A152T
The assay is described as above.

The target of a further assay is T11, Hu41BB N&E.2 (human, UniProt Q07011 18-255).
T11 construct: Human-to-dog mutant of the human 4-1BB extracellular domain, expressed on transduced 300-19 cells
T11 chain: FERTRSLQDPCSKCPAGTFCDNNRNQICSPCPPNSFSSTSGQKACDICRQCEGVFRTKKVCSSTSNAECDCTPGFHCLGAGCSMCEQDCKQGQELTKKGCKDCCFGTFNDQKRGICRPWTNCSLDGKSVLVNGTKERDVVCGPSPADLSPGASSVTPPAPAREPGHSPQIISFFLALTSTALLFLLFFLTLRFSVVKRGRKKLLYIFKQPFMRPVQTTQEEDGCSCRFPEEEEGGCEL
Described as above.

For a further assay, the target named is T12, Hu41BB N&E.4 (human, UniProt Q07011 18-255).
T12 construct: Human-to-dog mutant of the human 4-1BB extracellular domain, expressed on transduced 300-19 cells
T12 chain: T11 chain with L7I, P10S, D21G, N22K, R24K, N25S, S29I, T72I, P73S, S83T
The description is as above.

The target of the next assay is T13, Hu41BB N&E.1 (human, UniProt Q07011 18-255).
T13 construct: Human-to-dog mutant of the human 4-1BB extracellular domain, expressed on transduced 300-19 cells
T13 chain: T11 chain with D21G, N22K, R24K, S29I, E52K, K58R, V60E
The description is as above.

For assay [13], the target named is T2, Recombinant human 4-1BB/Fc Chimera (R&D …). In words: ELISA on coated human 4-1BB IgG1Fc chimera.

T4 sequence (P25942 21-277 limits assumed): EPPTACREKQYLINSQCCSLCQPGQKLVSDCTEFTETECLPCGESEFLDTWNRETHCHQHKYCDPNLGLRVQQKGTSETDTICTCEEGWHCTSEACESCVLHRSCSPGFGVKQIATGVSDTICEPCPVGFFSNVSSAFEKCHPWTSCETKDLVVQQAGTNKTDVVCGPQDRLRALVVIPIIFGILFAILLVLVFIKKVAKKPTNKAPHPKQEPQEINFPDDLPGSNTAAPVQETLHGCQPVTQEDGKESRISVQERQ

B1: Fab-7480 (Fab, V domains shown)
VH: QVQLVQSGAEVKKPGESLKISCKGSGYSFSTYWISWVRQMPGKGLEWMGKIYPGDSYTNYSPSFQGQVTISADKSISTAYLQWSSLKASDTAMYYCARGYGIFDYWGQGTLVTVSS
VL: DIELTQPPSVSVAPGQTARISCSGDNIGDQYAHWYQQKPGQAPVVVIYQDKNRPSGIPERFSGSNSGNTATLTISGTQAEDEADYYCATYTGFGSLAVFGGGTKLTVL
On to B1, for which the Kd in [1] worked out at 0.5 nM; in [4], 0.046 nM. For the same molecule, the 50% effective concentration (EC50) in assay [2] was determined as 0.7 nM; with human 4-1BB on cells [3], 0.9 nM.

B2: MOR-7480 (IgG1) (antibody, V domains shown)
VH: B1 VH
VL: B1 VL
notes: Human IgG1 format, lambda light chain
B2: the binding result in the assay with CD40 on 300.19 cells was “no binding (tested: 1000 nM)”; with OX-40 on 300.19 cells, “no binding (tested: 1000 nM)”; with Hu41BB N&E it was “binds”; in the assay with Hu41BB N&E.3 it was “binds”; with Hu41BB N&E.6 it was “binds”; in the assay with Hu41BB N&E.2, “binds”. The binding result with Hu41BB N&E.4 and with Hu41BB N&E.1 was “binds” throughout. The EC50 was 0.7 nM in assay [5]; 0.6 nM with human 4-1BB on cells [6]; 1.68 nM with human 4-1BB on cells [8]; 12.3 nM with Hu41BB N&E.5 [12]; 0.076 nM in assay [13]. The “% max inhibition” value in assay [7] was 96%. Also, the IC50 in assay [7] worked out at 0.122 nM. Moreover, the “fold selectivity for 4-1BB versus OX-40 and CD40” value with human 4-1BB on cells [9] is not below 100 fold. The same molecule registered a Kd in [10] of 0.42 nM. For the same molecule, in assay [10], the koff is 0.00015 s⁻¹. This molecule registered an association rate constant (kon) in [10] of 360000 M⁻¹ s⁻¹. The t1/2 in assay [10] turned out to be 1.37 h. The “fold decrease in binding against human 4-1BB” value with Hu41BB N&E.5 [11] is more than 5 fold.

The values are drawn from patent US20180194851A1 (Pfizer, published 2018).
